Here are results for 4 molecules from patent US7271143B1, “Peptides for regulation of urokinase (uPA) and tissue type (tPA) plasminogen activator and method of optimizing therapeutic efficacy” (Thrombotech Ltd., priority 2001, dated 2007).

Where two headings read alike, the source gives them in different places. Ends that are not written are not given here.

One series concerns isolated rat aorta rings. Kind of series: PE-induced contraction of isolated rat aorta rings. The series is classed as cell-based. As to the method: FIG. 1A is a diagram describing the results of experiments on the effect of tPA on PE-induced contraction of isolated rat aorta rings. Contraction of aortic rings was induced by increasing the concentrations of phenylephrine (PE), in the absence of tPA (full triangles) or in the presence of 1 nM (filled squares) or 20 nM tPA (empty squares).
FIG. 1B describes the results of experiments in which the contraction of aortic rings was induced in the absence of TNK-tPA (filled triangles), in the presence of 1 nM tPA (filled squares) or 20 nM tPA (empty squares).
FIG. 4 is a graph describing the effect of tPA on phenylepbrine-induced contraction of isolated rat aorta rings in vitro. The contraction of the aorta rings was induced by varying concentrations of phenylephrine in the absence of tPA (filled triangles), in the presence of 1 nM of TA (filled squares) or in the presence of 10 nM tPA (empty squares). The experiments were performed according to procedures described earlier by Haj-Yehia A et al., FASEB J, 2000, 14:1411–1422.
(§1) The effect of TNK-tPA on PE-induced contraction was compared with the effect of tPA, in the isolated aorta rings. The experimental procedure followed has been described earlier (Haj-Yehia A, Nassar T, Sachais B, Kuo A, Bdeir K., Al-Mehdi A-B, Mazar A, Cines D, Higazi A A-R. Urokinase-derived peptides regulate vascular smooth muscle contraction in vitro and in vivo. FASEB J 2000; 14:1411–1422.
FIG. 4 describes a graph describing the effect of TA on phenylephrine-induced contraction of isolated rat aorta rings in vitro. The contraction of the aorta rings was induced by varying concentrations of phenylephrine in the absence of tPA (filled triangles), in the presence of 1 nM of tPA (filled squares) or in the presence of 10 nM TA (empty squares). The experiments were performed according to procedures described earlier by Haj-Yehia A et al., FASEB J, 2000, 14:1411–1422.

Series [1] addresses T1, tPA (Homo sapiens, UniProt P00750). As to the kind of experiment: Effect on vasoactivity of tPA (PE-induced contraction of aorta rings). The class given is cell-based. The protocol:
(§2) FIG. 2 is a graphical representation of the results obtained in experiments to study the effect of PAI-1 on the vasoactivity of tPA. The EC50 of PE was determined in the absence (Control) or presence of 1 nM tPA, 20 nM tPA, 1 nM tPA and an equimolar concentration of PAI-1, 20 nM tPA and an equimolar concentration of PAI-1, 1 nM tPA and 2 μM of SEQ ID NO:1 or 20 nM tPA and 2 μM of SEQ ID NO:1.
FIG. 3 is a graphical representation of the results obtained in experiments to study the effect of RAP and anti-LRP antibodies on the vasoactivity of tPA. The EC50 of PE was determined in the absence (Control) or presence of 1 nM tPA, 20 nM tPA, 1 nM tPA and an equimolar concentration of PAI-1, 20 nM tPA and an equimolar concentration of PAI-1, 1 nM tPA and 2 μM of SEQ ID NO:1 or 20 nM tPA and 2 μM of SEQ ID NO:1.
FIG. 6 is a bar diagram describing the results of studies done on the effect of PAI-1 derived peptide on tPA vasoactivity. The constriction of aorta rings was induced by increasing the concentrations of phenylepbrine in the absence or presence of 1 nM tPA, 1 nM tPA and 1 OM SEQ ID NO:[…] tPA or 10 nM tPA and 1 OM of SEQ ID NO:1.
as §1
In an attempt to understand the basis for the modification in the vasoactivity of TNK-tPA, the role of the PAI-1 docking site in the process was examined.
(§3) The effect of revertase and TNK-tPA on the PE induced vasocontraction was studied in presence or absence of the LRP antagonist (RAP) or anti LRP antibodies.
(§4) FIG. 6 is a bar diagram describing the results of studies done on the effect of PAI-1 derived peptide on tPA vasoactivity. The constriction of aorta rings was induced by increasing the concentrations of phenylephrine in the absence or presence of 1 nM tPA, 1 nM tPA and 1 OM, 10 nM tPA or 10 nM tPA and 1 OM.

A further series has as its target scuPA (Homo sapiens, UniProt P00749). As to the kind of experiment: Effect on fibrinolytic activity of scuPA (blood clot lysis). The class given is biochemical.
Series [2] deals with T2, uPA (Homo sapiens, UniProt P00749). Kind of series: Effect on fibrinolytic activity of uPA. The class given is biochemical.
The target in series [3] is T2, uPA. As to the kind of experiment: Effect on vasoactivity of uPA (PE-induced contraction of aorta rings). The series is classed as cell-based. As to the method: FIG. 5 is a bar diagram describing the results of experiments on the vasoactivity of uPA and tPA in the presence or absence of PAI-1, for example, the effect of 2 nM uPA or 1 nM tPA on phenylephrine induced vasoconstriction was determined in the presence or absence of equimolar concentrations of PAI-1.
FIG. 5 describes a bar diagram describing the results of experiments on the vasoactivity of uPA and tPA in the presence of absence of PAI-1, for example, the effect of 2 nM uPA or 1 nM tPA on phenylephrine induced vasoconstriction was determined in the presence or absence of equimolar concentrations of PAI-1.
as §4

A further series deals with TNK-tPA (Homo sapiens, UniProt P00750, H332A/K331A/N152Q/R333A/R334A/T138N). Kind of series: Effect on vasoactivity of TNK-tPA (PE-induced contraction of aorta rings). The series is classed as cell-based. The protocol:
as §2
The effect of TNK-tPA on PE-induced contraction was compared with the effect of tPA, in the isolated aorta rings.
PAI-1 interacts with tPA through independent sites; the catalytic site and a docking site, present in the amino acids […] to 299. The PAI-1 docking site is mutated in TNK-tPA. […] Madison E L, Goldsmith W. Gething M-J, H., Sambrook J F, Gerard R D. Restoration of serine protease-inhibitor interaction by protein engineering. Journal of Biological Chemistry. 1990; 265:21423–21426.
as §3

Series [4] concerns the target T1, tPA. Kind of series: tPA mediated clot lysis / chromogenic assay of tPA activity. The class given is biochemical. As to the method: (§5) FIG. 7 is a bar diagram describing the results of experiments on the effect of PAI-1 derived peptide on tPA mediated clot lysis. The capacity of TA to induce clot lysis was determined in the presence and absence of 1 OM of SEQ ID NO:1. In these experiments, blood from volunteers was allowed to clot at room temperature for one hour, the blood clot was separated from the plasma, placed on absorbing paper to remove all the serum and cut into several pieces. The pieces were weighed, and placed in PBS buffer alone or containing 100 nM tPA, with or without 1 OM of SEQ ID NO:1. After incubation for 3 hours at room temperature, the thrombi are separated from the medium, dried and weighed.
as §5, with “of tPA” for “of TA”, “of 10 M.” for “of 1 OM of SEQ ID NO:1.”, “without 10M.” for “without 1 OM of SEQ ID NO:1.”, “weighed. […]” for “weighed.”

For series [5] the following is noted: in vivo; cited from earlier work.
For series [6] the following is noted: in vivo; cited from earlier work. The source holds these as a separate data set.

T1 sequence (P00750 36-562): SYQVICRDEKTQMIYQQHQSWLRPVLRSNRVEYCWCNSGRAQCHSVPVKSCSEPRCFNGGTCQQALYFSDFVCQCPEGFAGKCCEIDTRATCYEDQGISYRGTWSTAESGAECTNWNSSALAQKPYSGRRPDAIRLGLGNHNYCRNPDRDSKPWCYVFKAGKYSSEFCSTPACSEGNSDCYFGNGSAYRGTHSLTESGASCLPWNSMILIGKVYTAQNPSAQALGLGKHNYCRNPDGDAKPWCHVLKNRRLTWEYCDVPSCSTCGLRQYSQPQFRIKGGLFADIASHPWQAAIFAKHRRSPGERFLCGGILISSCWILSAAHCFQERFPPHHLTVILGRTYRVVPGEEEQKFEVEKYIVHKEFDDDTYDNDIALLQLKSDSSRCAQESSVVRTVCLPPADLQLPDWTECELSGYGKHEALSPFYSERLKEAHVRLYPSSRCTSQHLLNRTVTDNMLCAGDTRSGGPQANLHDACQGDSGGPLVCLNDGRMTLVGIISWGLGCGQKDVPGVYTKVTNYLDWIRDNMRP
Chain of TNK-tPA (P00750 36-562 T138N/N152Q/K331A/H332A/R333A/R334A): as the sequence (P00750 36-562) above, with T103N, N117Q, K296A, H297A, R298A, R299A counted along it

Take `CNC[C@H](O)c1cccc(O)c1` [PE, phenylephrine, reference compound]: the EC50 with isolated rat aorta rings (Rattus norvegicus, control, before addition of plasminogen activator, read-out: EC50 of PE-induced constriction) was 34 nM.

In the case of “EEIIMD [SEQ ID NO:1, six amino acid peptide corresponding to residues 350 to 355 of PAI-1]”, in the series with tPA [1] (2 μM peptide), the “effect on vasoactive effects of rtPA” value is given as “abolished”. For the same molecule, in the series with tPA [1] (concentration not given), the “effect on enhancing effect of tPA on phenylephrine-induced vasoconstriction in aorta ring cultures” value is given as “abolishes”. The “effect on enhancing effect of tPA on phenylephrine induced vasoconstriction” value in the series with tPA [1] (peptide at 10M (so in the source)) is listed as “abolished”. In addition, the “effect on fibrinolytic activity of scuPA” value is recorded as “no effect” in the series with scuPA and “stimulates synergistically” with scuPA (listed as 6 amino acid peptide). The “effect on fibrinolytic activity of uPA” value with uPA [2] is given as “no effect”. Besides, the “effect on enhancing effect of uPA on phenylephrine-induced vasoconstriction” value with uPA [3] (concentration not given) was “abrogates”. The “effect on enhancing effect of uPA on phenylephrine induced vasoconstriction” value in the series with uPA [3] (same as on tPA, peptide at 10M (so in the source)) is recorded as “the same effect”. In the series with isolated rat aorta rings (without tPA or uPA), the “effect alone on contraction of aorta rings” value was “Neither PAI-1 nor alone had any effect”. The “effect on vasoactive effect of TNK-tPA” value with TNK-tPA (2 μM peptide) is “unaffected”; with TNK-tPA (10 μM peptide) it was “abolished”; in the series with TNK-tPA (5 molar concentration of the peptide), “abolished”; in the series with TNK-tPA (equimolar concentration of peptide), “unaffected”. Also, the “effect on fibrinolytic activity of tPA” value with tPA [4] was “no effect”. The “effect on catalytic activity of tPA (clot lysis, FIG. 7)” value with tPA [4] (100 nM tPA, peptide 10M (so in the source), 3 hours, room temperature) is “no significant effect”.

For the molecule “rRAP: LRP antagonist, recombinant receptor associated protein [reference compound]”, the “effect on vasoactive effect of tPA” value with tPA [1] is on record as “totally abolished”. Further, in the series with TNK-tPA (anti-LRP antibodies or LRP antagonist), the “effect on vasoactive effect of TNK-tPA” value is recorded as “totally abolished”.

In the case of “tPA: tissue-type plasminogen activator, single-chain serine protease; rtPA is the recombinant form”, in [5], the “incidence of subsequent symptomatic intracerebral hemorrhage” value is on record as “approximately six” and the “patients with symptomatic intracerebral hemorrhage who die” value is listed as “approximately fifty”. For the same molecule, in the series on isolated rat aorta rings, the “affinity of first (fast) epitope, inhibits PE induced vasoconstriction” value is on record as “around 1 nM” and the “affinity of second epitope, stimulates PE-induced vasoconstriction” value is on record as “around 20 nM”. Besides, the “effect on PE-induced vasoconstriction” value in the series on isolated rat aorta rings (1 nM) is “inhibited”. In addition, the “effect on PE-induced vasoconstriction” value with isolated rat aorta rings (1 nM, listed as TA) is reported as “inhibits”. Moreover, the “effect on PE-induced vasoconstriction” value with isolated rat aorta rings (20 nM) was “stimulated”. Besides, the “capacity to induce vasodilatation” value in the series with isolated rat aorta rings (FIG. 4) is “has the capacity to induce vasodilatation”. In addition, the “effect on phenylephrine-induced vasoconstriction” value with isolated rat aorta rings (increased tPA concentrations (printed 1 nM; FIG. 4 uses 10 nM)) is “stimulated”. Besides, in series [6], the non-cerebral bleeding episodes is given as 5.94%.

The term EC50 denotes the concentration giving half of the maximal effect.
